Results taken from the Immune Epitope Database (IEDB).

Key:
[1] = target: HLA-B*46:01; assay: IEDB peptide-MHC binding, purified MHC/direct/fluorescence; filed as Kd, often an IC50 or EC50 that approximates it; ≥ and ≤ were set here for values at or beyond the usual limits of such assays
[2] = target: HLA-A*03:01; assay: as above
[3] = target: HLA-B*48:01; assay: as above
[4] = target: HLA-B*08:01; assay: as above
[5] = target: HLA-B*08:03; assay: as above; conditions: source organism: Salmonella enterica subsp. enterica serovar Typhimurium str. LT2
[6] = target: HLA-B*07:02; assay: as above
[7] = target: HLA-B*40:01; assay: as above
[8] = target: HLA-B*15:17; assay: as above; conditions: source organism: Salmonella enterica
[9] = target: HLA-B*58:01; assay: as above
[10] = target: HLA-B*15:01; assay: as above
[11] = target: HLA-B*08:02; assay: as above; conditions: source organism: Salmonella enterica subsp. enterica serovar Typhimurium str. LT2
[12] = target: HLA-B*27:05; assay: as above
[13] = target: HLA-B*18:01; assay: as above
[14] = target: HLA-A*01:01; assay: as above
[15] = target: HLA-B*57:01; assay: as above
[16] = target: HLA-A*02:01; assay: as above
[17] = target: HLA-A*31:01; assay: as above
[18] = target: HLA-A*11:01; assay: as above
[19] = target: HLA-A*68:02; assay: IEDB peptide-MHC binding, purified MHC/competitive/fluorescence; filed as Kd, often an IC50 or EC50 that approximates it; ≥ and ≤ were set here for values at or beyond the usual limits of such assays; conditions: source organism: Salmonella enterica subsp. enterica serovar Typhi
[20] = target: HLA-A*69:01; assay: IEDB peptide-MHC binding, purified MHC/direct/fluorescence; filed as Kd, often an IC50 or EC50 that approximates it; ≥ and ≤ were set here for values at or beyond the usual limits of such assays
[21] = target: HLA-B*15:09; assay: as above
[22] = target: HLA-A*24:02; assay: as above
[23] = target: HLA-B*44:02; assay: as above
[24] = target: HLA-B*39:01; assay: as above; conditions: source organism: Yersinia enterocolitica subsp. enterocolitica 8081
[25] = target: HLA-C*03:03; assay: as above
[26] = target: HLA-A*26:01; assay: as above
[27] = target: HLA-A*02:01; assay: IEDB peptide-MHC binding, purified MHC/competitive/radioactivity; ≥ and ≤ were set here for values at or beyond the usual limits of such assays
[28] = target: HLA-C*15:02; assay: IEDB peptide-MHC binding, purified MHC/direct/fluorescence; filed as Kd, often an IC50 or EC50 that approximates it; ≥ and ≤ were set here for values at or beyond the usual limits of such assays; conditions: source organism: Mammarenavirus choriomeningitidis
[29] = target: HLA-A*29:02; assay: IEDB peptide-MHC binding, purified MHC/competitive/radioactivity; filed as Kd, often an IC50 or EC50 that approximates it; ≥ and ≤ were set here for values at or beyond the usual limits of such assays; conditions: source organism: Lassa virus Josiah
[30] = target: HLA-A*24:02; assay: as above; conditions: source organism: Lassa virus Josiah
[31] = target: HLA-A*23:01; assay: as above; conditions: source organism: Lassa virus Josiah
[32] = target: HLA-C*12:03; assay: IEDB peptide-MHC binding, purified MHC/direct/fluorescence; filed as Kd, often an IC50 or EC50 that approximates it; ≥ and ≤ were set here for values at or beyond the usual limits of such assays
[33] = target: HLA-B*35:01; assay: as above
[34] = target: HLA-B*53:01; assay: IEDB peptide-MHC binding, purified MHC/competitive/fluorescence; ≥ and ≤ were set here for values at or beyond the usual limits of such assays; conditions: source organism: Human herpesvirus 4 type 2
[35] = target: HLA-C*06:02; assay: IEDB peptide-MHC binding, purified MHC/direct/fluorescence; filed as Kd, often an IC50 or EC50 that approximates it; ≥ and ≤ were set here for values at or beyond the usual limits of such assays; conditions: source organism: Orthohantavirus sinnombreense
[36] = target: HLA-A*02:19; assay: as above; conditions: source organism: Limestone Canyon virus
[37] = target: HLA-B*15:17; assay: IEDB peptide-MHC binding, purified MHC/competitive/fluorescence; filed as Kd, often an IC50 or EC50 that approximates it; ≥ and ≤ were set here for values at or beyond the usual limits of such assays; conditions: source organism: Orthohantavirus sinnombreense
[38] = target: HLA-A*26:01; assay: as above; conditions: source organism: Orthohantavirus sinnombreense
[39] = source organism: Salmonella enterica
[40] = source organism: Influenza A virus (A/Wisconsin/4755/1994(H1N1))
[41] = source organism: Influenza A virus (A/Puerto Rico/8/34/Mount Sinai(H1N1))
[42] = source organism: Vibrio cholerae
[43] = source organism: Vibrio cholerae RC385
[44] = source organism: Hepatitis B virus
[45] = source organism: Mammarenavirus lassaense
[46] = source organism: Mycobacterium tuberculosis variant bovis BCG str. Pasteur 1173P2
[47] = source organism: Escherichia coli O157:H7
[48] = source organism: Escherichia coli O6
[49] = source organism: Influenza A virus (A/Turkey/MO/24093/99(H1N2))
[50] = source organism: Influenza A virus(A/swine/Henan/5/2004(H9N2))
[51] = source organism: Orthohantavirus sinnombreense

With NVHRSQFAQ as the sequence, how does the Kd [1, 39] read?
The Kd was ≥ 20 µM.

What about the Kd [2, 39] of the same sequence?
Its Kd is ≥ 20 µM.

And the Kd [3, 39]?
Its Kd is ≥ 20 µM.

What about the Kd ([4]; source organism: Salmonella enterica subsp. enterica serovar Typhimurium str. LT2) of the same sequence?
The Kd was ≥ 20 µM.

What about the Kd [5] of the same sequence?
The Kd was ≥ 20 µM.

What about the Kd [6, 39] of the same sequence?
The Kd was ≥ 20 µM.

And the Kd [7, 39]?
Its Kd is ≥ 20 µM.

What about the Kd [8] of the same sequence?
Its Kd is ≥ 20 µM.

And the Kd [9, 39]?
Its Kd is ≥ 20 µM.

What about the Kd [10, 39] of the same sequence?
Its Kd is ≥ 20 µM.

What about the Kd [11] of the same sequence?
Its Kd is ≥ 20 µM.

What about the Kd [12, 39] of the same sequence?
The Kd was ≥ 20 µM.

And the Kd [13, 39]?
Its Kd is ≥ 20 µM.

And the Kd [14, 39]?
Its Kd is ≥ 20 µM.

And the Kd [15, 39]?
Its Kd is ≥ 20 µM.

What about the Kd [16, 39] of the same sequence?
Its Kd is ≥ 20 µM.

What about the Kd [17, 39] of the same sequence?
Its Kd is ≥ 20 µM.

And the Kd [18, 39]?
The Kd was ≥ 20 µM.

What about the Kd [19] of the same sequence?
Its Kd is ≥ 20 µM.

Which Kd [1, 40] does the source give for YRYTYRCHR here?
Its Kd is ≥ 20 µM.

What about the Kd [2, 40] of the same sequence?
The Kd was ≥ 20 µM.

What about the Kd [4, 40] of the same sequence?
Its Kd is ≥ 20 µM.

What about the Kd [6, 40] of the same sequence?
Its Kd is ≥ 20 µM.

What about the Kd [20, 40] of the same sequence?
The Kd was ≥ 20 µM.

And the Kd [7, 40]?
Its Kd is ≥ 20 µM.

And the Kd [9, 40]?
The Kd was 0.587 µM.

What about the Kd ([21]; source organism: Influenza A virus(A/swine/Shandong/fZC/2003(H9N2))) of the same sequence?
The Kd was ≥ 20 µM.

What about the Kd [10, 40] of the same sequence?
Its Kd is ≥ 20 µM.

And the Kd [22, 40]?
Its Kd is ≥ 20 µM.

And the Kd [23, 40]?
Its Kd is ≥ 20 µM.

What about the Kd [12, 41] of the same sequence?
The Kd was 0.267 µM.

What about the Kd [14, 40] of the same sequence?
Its Kd is ≥ 20 µM.

What about the Kd [16, 40] of the same sequence?
The Kd was ≥ 20 µM.

And the Kd [18, 40]?
The Kd was ≥ 20 µM.

For FHYQDPFPL, which Kd [24] is on record?
Its Kd is ≤ 0.001 µM.

And the Kd ([25]; source organism: Yersinia pestis Nepal516)?
The Kd was 1.39 µM.

What about the Kd ([21]; source organism: Yersinia enterocolitica subsp. enterocolitica 8081) of the same sequence?
The Kd was ≤ 0.001 µM.

What does the source list for GLRWHVRAF?
Kd [2, 42]: ≥ 20 µM; Kd [6, 42]: 0.407 µM; Kd [20, 42]: ≥ 20 µM; Kd [7, 42]: ≥ 20 µM; Kd [9, 42]: ≥ 20 µM; Kd [21, 43]: ≥ 20 µM; Kd [10, 42]: 0.0794 µM; Kd [22, 42]: ≥ 20 µM; Kd [23, 42]: ≥ 20 µM; Kd [26, 43]: ≥ 20 µM; Kd [12, 42]: ≥ 20 µM; Kd [14, 42]: ≥ 20 µM; Kd [16, 42]: ≥ 20 µM; Kd [17, 42]: ≥ 20 µM; Kd [18, 42]: ≥ 20 µM

For QLLWFHISCL, which IC50 [27, 44] is on record?
The IC50 was 0.393 µM.

How did the IC50 ([27]; source organism: Homo sapiens) turn out when RVASPTSGV was run?
The IC50 was 0.731 µM.

For YLISIFLHL, which Kd [20, 45] is on record?
The Kd was 0.802 µM.

And the Kd [28]?
Its Kd is ≥ 20 µM.

And the Kd [16, 45]?
The Kd was 0.0809 µM.

And the Kd [29]?
Its Kd is 0.0997 µM.

What about the Kd [30] of the same sequence?
Its Kd is ≥ 67.7 µM.

And the Kd [31]?
Its Kd is 0.000422 µM.

How did the Kd [25, 46] turn out when YVIEPAAGL was run?
The Kd was ≤ 0.001 µM.

What about the Kd [32, 46] of the same sequence?
The Kd was 0.023 µM.

FPFWGCFVS was tested. Which Kd ([33]; source organism: Rickettsia prowazekii) did it give?
The Kd was 0.002 µM.

With AHGWSTFYL as the sequence, how does the Kd [2, 47] read?
The Kd was ≥ 20 µM.

What about the Kd [4, 47] of the same sequence?
Its Kd is ≥ 20 µM.

What about the Kd [6, 47] of the same sequence?
Its Kd is ≥ 20 µM.

And the Kd [20, 48]?
The Kd was 1.54 µM.

What about the Kd [33, 48] of the same sequence?
The Kd was 2.1 µM.

And the Kd [7, 47]?
The Kd was ≥ 20 µM.

And the Kd [9, 47]?
The Kd was ≥ 20 µM.

And the Kd [10, 47]?
The Kd was ≥ 20 µM.

What about the Kd [23, 47] of the same sequence?
Its Kd is ≥ 20 µM.

And the Kd [26, 47]?
The Kd was ≥ 20 µM.

And the Kd [12, 47]?
The Kd was ≥ 20 µM.

What about the Kd [14, 48] of the same sequence?
Its Kd is 3.15 µM.

What about the Kd [16, 47] of the same sequence?
The Kd was ≥ 20 µM.

What about the Kd [17, 47] of the same sequence?
The Kd was ≥ 20 µM.

What about the Kd [18, 47] of the same sequence?
Its Kd is ≥ 20 µM.

For FLPNDFFPSA, which IC50 [27, 44] is on record?
Its IC50 is 0.0021 µM.

Which Kd [2, 41] does the source give for GMQIRGFVY here?
Its Kd is 1.13 µM.

And the Kd [4, 49]?
The Kd was ≥ 20 µM.

What about the Kd [6, 49] of the same sequence?
Its Kd is ≥ 20 µM.

And the Kd [20, 49]?
Its Kd is ≥ 20 µM.

And the Kd [7, 49]?
Its Kd is ≥ 20 µM.

What about the Kd [9, 49] of the same sequence?
Its Kd is 4.75 µM.

What about the Kd [21, 50] of the same sequence?
Its Kd is ≥ 20 µM.

And the Kd [10, 41]?
Its Kd is 0.26 µM.

And the Kd [22, 49]?
The Kd was ≥ 20 µM.

What about the Kd [23, 49] of the same sequence?
The Kd was ≥ 20 µM.

And the Kd [26, 50]?
The Kd was ≥ 20 µM.

And the Kd [12, 49]?
The Kd was ≥ 20 µM.

And the Kd [14, 49]?
Its Kd is ≥ 20 µM.

And the Kd [16, 49]?
Its Kd is ≥ 20 µM.

For QAYAAPQLF, which IC50 [34] is on record?
The IC50 was 0.0707 µM.

For VATVNAVTV, which Kd ([32]; source organism: Leishmania major strain Friedlin) is on record?
The Kd was 0.018 µM.

How did the IC50 [27, 44] turn out when ILSTLPETTV was run?
Its IC50 is 0.233 µM.

What does the source list for FRYKSRCYV?
Kd [1, 51]: ≥ 20 µM; Kd [2, 51]: ≥ 20 µM; Kd [3, 51]: ≥ 20 µM; Kd [4, 51]: ≥ 20 µM; Kd [35]: 0.007 µM; Kd [6, 51]: ≥ 20 µM; Kd [7, 51]: ≥ 20 µM; Kd [9, 51]: ≥ 20 µM; Kd [36]: ≥ 20 µM; Kd [10, 51]: ≥ 20 µM; Kd [23, 51]: ≥ 20 µM; Kd [13, 51]: ≥ 20 µM; Kd [14, 51]: ≥ 20 µM; Kd [15, 51]: ≥ 20 µM; Kd [37]: ≥ 20 µM; Kd [38]: ≥ 20 µM
